{"source": "the nanobody polyreactivity screen of Harvey et al. (2022)", "data": [{"test": "yeast display, Sf9 membrane polyspecificity reagent, FACS + sequencing; frameworks hold sequencing errors", "how_it_was_run": "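Nanobodies from a synthetic yeast display library (Saccharomyces cerevisiae BJ5465), induced 36–48 hours with galactose, were stained 1 hour at 4 °C with 10% biotinylated, detergent-solubilized Sf9 membrane reagent, enriched on streptavidin microbeads, then FACS-sorted. Anti-HA (expression) and streptavidin (reagent binding) fluorescence set low and high (top ~1%) gates. Polyreactivity labels come from the gate of origin. Genes were colony-PCR amplified, MiSeq 2 × 250 sequenced and filtered by CDR length.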", "values": [{"sequence": "QVQLVESGGCLVQAGGSLRLSCAASGSTFYLNAMGWYRQAPGKEREMVAAITVSGGSTYYADSVKGRFTISRDNAKNTVYLQMNSLKPVDTAVYFCSRELLCPTYQRWYYYWGLGTQVTVSS", "polyreactivity (PSR sort gate)": "low polyreactivity"}, {"sequence": "QVQLVESGGGLVQAGGSLRLSCAASGRTFSIYAMGWYRQAPGKERELVAAISRGVTTYADSVKGRFTISRDNAKNTVYLQMNSLKPEDTAVYYCNARTVVYVRGGYWGQGTQVTVSS", "polyreactivity (PSR sort gate)": "low polyreactivity"}, {"sequence": "QVQLVESGGGLDQAGGSLRLSCAASGTIFTFYTMGWYRQAPGKERELVAAINWSGSRTYYADSVKGRFTISRDNAKNTVYLQMNSLKPEDTAVYYCAAEHWFPSAPWYYSDLHYYWGQGTQVTVSS", "polyreactivity (PSR sort gate)": "high polyreactivity"}, {"sequence": "QVQLVESGGGLVQAGGSLRLSCAASGRIFGYYAMGWYRQAPGKERELVARITWSGGDTYYADSVKGRFTISRDNAKNTVYLQMNSLKPEDTAVYYCAADYLDSTYGYVYGWDDYWGQGTQVTVSS", "polyreactivity (PSR sort gate)": "low polyreactivity"}, {"sequence": "QVQLVESGGGLVQAGGSLRLSCAASGIIFWSYTMGWYSQAPGKERELVAVITSDGSTNYADSVKGRITISRDNAKNSVYLQMKSLKPEDTAVYDCAADPWLGTGRYDYWGQGTQVTVSS", "polyreactivity (PSR sort gate)": "low polyreactivity"}, {"sequence": "QVQLVESGGGLVQAGGSLRLSCAASGRIFWTNDMGWYRQAPGKERELVAVISSDTGSTDYADSVKGRFTISRDNAKNTVYLQMNSLKPEDTAVFYCNKRGLSRVNYWGQGTQVTVSS", "polyreactivity (PSR sort gate)": "low polyreactivity"}, {"sequence": "QVQLVESGGGLVQAGVSLRLSCAASGSTFTGTAMGWYIQAPGKERELVASINGSSGSTYYADSVKGRFTISRDNAKNTVYLQMNSLKPEDTAVYYCAKDSFLHFPRVGWVGLEYWGQGTQVTLSS", "polyreactivity (PSR sort gate)": "low polyreactivity"}, {"sequence": "QVQLVESGGGLVQAGGSLRLSCAASGRTFYYYAMGWYRQAPGKERELVAAISWGGGRTYYADSVKGRFTISRDNAKNTVYLQMNSLKPEDTAVYYCNAVRTTPSGSLPLAYDYWGQGTQVTVSS", "polyreactivity (PSR sort gate)": "low polyreactivity"}, {"sequence": "QVQLVESGGGLVQAGGSLRLTCAASGFIFPRYAMGWYRQAPGKERELVAAISGNGVRTYYADSVKGRFTISRDNAKNTVYLQMNSLNPEDTAVYYCNTGADVRYRYYYWGQGTQVTVSS", "polyreactivity (PSR sort gate)": "high polyreactivity"}, {"sequence": "QVQLEESGGGLCQAGGSLRLSCAPSGSIFVSNAMVCYRQAPGKERELVAAITYNGGRTFYADSVKGRFTISRDNAKNTVYLQLNSLKPEDTAVYYFAADGSWHGYGYWGQGTQVTVSS", "polyreactivity (PSR sort gate)": "low polyreactivity"}, {"sequence": "QVQLVESGGGLVQAGGSLRLSCAASGSNFSYYTMGWYRQAPGKERELVAAISTSGGSTYYADSVKGRFTISRDNAKNTVYLQMNSLKPEDTAVYYCAARYGRYYKYNYWGQGTQVTVSS", "polyreactivity (PSR sort gate)": "high polyreactivity"}, {"sequence": "QVQLVESGGGLVQAGGSLRLSCAASGNTFREYGMGWYRQAPGKERELVAAISSTGSTNYADSVKGRFTISRDNAKNTVYLQMNSLKPEDTAVYYCNRDRVWGSGVRTRGDYWGQVTQVTVSS", "polyreactivity (PSR sort gate)": "low polyreactivity"}, {"sequence": "QVQLVESGGGLVQAGGSLRLSCAASGSISIQYVMGWYRPAPGKERELVAAIRVIGGSTSYADSVKGRFTISRDNAKNTVYLQMNSLKPEDTAVYYCAADWAWTISDGYYYGYPQYDYWGQGTQVTVSS", "polyreactivity (PSR sort gate)": "high polyreactivity"}, {"sequence": "QVQLVESGGGLVQAGGSLRLSCAASGLTFGLNALGWYRQAPGKERELVAAITWSGGSTYYADSVKGRFTISRDNAKNTVYLQMNSLKPEDTAVYYCATDNWSVNGGYNYWGQGTQVTVSS", "polyreactivity (PSR sort gate)": "low polyreactivity"}, {"sequence": "QVQLVESGGGLVQAGGSLRLSCAASGLTFVYNDMGWYRQAPGKERELVAGITSGGSTSYADSVKGRFTISRDNAKNTVYLQMNSLKPEDTAVYYCAAGVYALRRDYWGQGTQVTVSS", "polyreactivity (PSR sort gate)": "low polyreactivity"}, {"sequence": "QVQLVESGGGLVQAGGSLRLICAASGSILYRYAMGWYRQAPGKERELVASISWSDGSTYYADSVKGRFTISRDNAKNTLYLQMNSLKPEDTAVYYCAAKGWGSDSYYAYGYDYWGQGTQVTVSS", "polyreactivity (PSR sort gate)": "low polyreactivity"}, {"sequence": "QVQLVESGGGLVQAGGSLRLSCAASGSTFFRNAKGWYRQAPGKERELVAANSSTGGTTYYAHSVKGRFTISRDNAQNTVYLQMNSLKPEETAVYYCAAAGYIENDGYVQKFEYWGQGTQVTVSS", "polyreactivity (PSR sort gate)": "low polyreactivity"}, {"sequence": "QVQLVESGGGLVQAGGSLRLSCAASGRTFTLYAMGWYRQAPGKERELVAAIRWSGSSTYYADSVKGRFTISRDNAKNTVYLQMNSLKPEDTAVYYCAADRAYRRFSQGAYSPWILKYGYWGQGTQVTVSS", "polyreactivity (PSR sort gate)": "high polyreactivity"}, {"sequence": "QVQLVESGGGLVKAGGSLRLSCGASGSIIVRYAMGWYRQAPGKERELVASISKRGGSTYYADSVKGRFTISRDNAKNTVYLQMNSLKPEDTEVYYCAAVCYYLVKFDYWGLGTQVTVSS", "polyreactivity (PSR sort gate)": "high polyreactivity"}, {"sequence": "QVQLVESGGGLVQAGGSLRLSCAASGNIFRRYAMGWYREAPGKERELVAAISRGGTRTYYADSVKGRFTISRDNAKNTVYLQMNSLKPEDTAVYYCNAEVNTNYRIADYDYWGQGTQVTVSS", "polyreactivity (PSR sort gate)": "high polyreactivity"}, {"sequence": "QVQLVESVGGLVQAGGSLRLSCAASGSNFSKKTMGGSRQAHGKERELVAAITTRGSSTYYADSVKGRFTISRDNAKNTVYLQMNSLKPVDTAVYYCNAPYRVTGGRYRWYDYWGQGTQVTVSS", "polyreactivity (PSR sort gate)": "high polyreactivity"}, {"sequence": "QVQLVESGGGLVQAGGSLRLSCAASRITSYPYAMGWSRQGPGKERELVAAISKRGGGTYYADSVKGPFTISRDNAMNTVYLQLNSLKPVDTAVYYCAKSWGPTTYKIVPAYGYWGQGTQVTVSS", "polyreactivity (PSR sort gate)": "high polyreactivity"}, {"sequence": "QVQLVESGGGLVQAGGSLRLSCAASGRTIPAYAMGWYRQAPGKERELVAAISWGGGSTYYADSVKGRFTISRDNAKNTVYLQMNSLKPEDTAVYYCAVAGYWFAVAEYDYWGQGTQVTVSS", "polyreactivity (PSR sort gate)": "low polyreactivity"}, {"sequence": "QVQLVESGGGLVQAGGSLRLSCAASGYIFRGYVMGWYRQAPGKERELVAAITSRGDSTYYADSVKGRFTISRDNAKNTVYLQMNSLKPEDTAVYYCNAVHYYVEYDYWGQGTEVTVSS", "polyreactivity (PSR sort gate)": "high polyreactivity"}, {"sequence": "QVQLVESGGGLVQAGGSLRLSCAASGSTFWYYAMGWYRQAPGKEREFVAAITTSAGRTYDADSVKGRFTISRDHAKNTVYLQMNSLKPEDTAVYYCAAEPRQYWEYNYWGQGTQVTVSS", "polyreactivity (PSR sort gate)": "high polyreactivity"}, {"sequence": "QVQLVESGGGLVQAGGSLLLSCAASGRIFDRNAIGWYRQAPGKERELVAAINSVGTTYYADSVKGRFTISRDNAKNTVYLQMNSLKPEDTAVYYCAARSAYRRGYWGQGTQVTLSS", "polyreactivity (PSR sort gate)": "high polyreactivity"}, {"sequence": "QVQLVESGGGLVQAGGSLRLSCAASGRILGAYAMGWYRQAPGKERELVASISSGGRTYYADSVKGRFTISRDNAKNTVYLQMNSLKPEDTAVYYCNAKVRRRKYDYWGQGTQVTVSS", "polyreactivity (PSR sort gate)": "high polyreactivity"}, {"sequence": "QVQLVESGGVLVQAGGSLRLSCAASVFIFPYYAMGRYRQEPGKEMELVAAISSGGITNYADSVKGRFTISRDNSKNTVYLQMNSLKPEDTAVYYCAAKRRVGNFRYGYWGQGTQVTVSS", "polyreactivity (PSR sort gate)": "high polyreactivity"}, {"sequence": "QVQLVESGGGIVQAGGSLRLSCAASGNIFSYYAMGWYRQAPGKERELVAAITYRSDSTYYADSVKGRFTISRDNAKNTVYLQMNSLKPEDTAVYYCATEPWYGWGFGYWGQGTQVTVSS", "polyreactivity (PSR sort gate)": "low polyreactivity"}, {"sequence": "QVQLVESGGGIVQAGGSLRLSCAASGRVFTYYAMGWYRQAPGKERELVAAISSGGNTYYADSVKGRFTISRDNAKNTVFLQMNSLKPEDTAVYYCAAAGRPRYESNYWGQGTQVSVSS", "polyreactivity (PSR sort gate)": "high polyreactivity"}, {"sequence": "QVQLVESGGGLVQAGGSLRLSCAASGIIFRPYAMGWYRQAPGKERELVAAITGSGVSTYYADSVKGRFTISRDNAKNTVYLQMNSLKPEDTAVYYCAARYDVHYDGMDYWGQGTQVTVSS", "polyreactivity (PSR sort gate)": "low polyreactivity"}, {"sequence": "QVQLVESGGGLVQAGGSLRLSCAASGSTFTWYAMGWYRQAPGKERELVAAISGSGGRTFYADSVKGRFTISRDNAKNTVYLQMNSLKPEDTAVYYCNAVRVSIPYIYTMDYWGQGTQVTVSS", "polyreactivity (PSR sort gate)": "high polyreactivity"}, {"sequence": "QVQLVESGGGLVQAGGRLRLSSAASGRTFYPNAMGWYRKAPLKERELVAAISGSGGSTYYADSVKGRFTISRDNAKNTVYLQMNSLKPEDTAVYYCAAYPEYLVGYRYGSWGQGTQVTVSS", "polyreactivity (PSR sort gate)": "high polyreactivity"}, {"sequence": "QVQLVESGGGLVQAGGSLRLSCAASGIIFPSYDMGWYRQAPGKERELVAAINSGDSTYYADSVKGRFTISRDNAKNTVYLQMNSLKPEDTAVYYCAANPGDLGGWYVPYDYWGQGTQVTVSS", "polyreactivity (PSR sort gate)": "low polyreactivity"}, {"sequence": "QVKLVESGGGLVQAGGSLRLSCAASGSTFHLNAMGWYRPAPGKDRELVAANSWDGSSTSYADSVKGRFTISRDNAKNTVYLQMNSLKPEDTAVYFCAADDTLDRVPTTFIDGSPGYGYWGQGTQVTVSS", "polyreactivity (PSR sort gate)": "low polyreactivity"}, {"sequence": "QVQLVESGGGLVQAGGSLRLSCAASGSTFFSYAMGWYRQAPGTERELVAAITRSGGSTYYADSVKGRFTISRDNAKNTVYLQMNSLKPEDTAVYYCAPRRYEPKAVYYWGQGTQVTVSS", "polyreactivity (PSR sort gate)": "high polyreactivity"}, {"sequence": "QVQLVYSGGGLVQAGGSLRLSCAASGISFSQYAMGWYRQAPGKERELVASISSGGRTNYADSVKGRFTISRDNAKNTVYLQLNSLTPEDTAVYYCAAEQWGWYWYDYWGQGTQVTVSS", "polyreactivity (PSR sort gate)": "high polyreactivity"}, {"sequence": "QVQLVDSGGGLVQAGGSLRLSCAASGSIFVSYTMGRYRQAPGKEREFVAAITKSGGSTYYADSVKGRFTISRDNAKNTVYLQMNSLKPEDTAVYYCAADWLHYVYEGYDYWGQGTQVTVSS", "polyreactivity (PSR sort gate)": "low polyreactivity"}, {"sequence": "QVQLVESGGGLVQAGGSLRLSCAASGGTIRVYAMRWYRQAPGKERELVAAITGRGGSTYYADSVKGRFTISRDNAKNTVYLQMNSLKPEDTAVYYCAKDPVTTYYKYDYWGQGTQVTVSS", "polyreactivity (PSR sort gate)": "low polyreactivity"}, {"sequence": "QVQLVESGGGLVQARGSLRLSCASSGITFWKYTMGCYRQAPGKESELVASIRIGGSTYYADSVKGRFTISRDNAKNTVYLQMNSLKPEDTAVYYCAAKGIYGLQGSPRSGYYYWGQGTQVTVSS", "polyreactivity (PSR sort gate)": "high polyreactivity"}, {"sequence": "QVQLVESGGGLVQAGGSLRLTCAASGRIFTGNSMGWYRQAPGQERELVAAITRRGGNTYYADSVKGRFTISRDNAKNTVYLQMNSLKPEDTAVYSCARDRPGDYAGYDYWGQGTQVTVSS", "polyreactivity (PSR sort gate)": "low polyreactivity"}, {"sequence": "QVQLVESGGGLVQAGGSLRLSCAASGSNFLSYAMGWYRQAPGKERELVAAITGSGGNTYYADSVKGRFTISRDNAKHTVYLQMKSLKPEDTAVYYCSAVATRSNYWRGFYYWGQGTKVTVSS", "polyreactivity (PSR sort gate)": "high polyreactivity"}, {"sequence": "QVQLVESGGGLVQAGGSLRISCAASGRTFYANAMGWYRQAPGKERELVAAISSNGGSTYYADSVKGRFTISRDNAKNTVYLQMNSLKPEDTAVYYCAVVSRYIAWRKYDYCGQGTQVTVSS", "polyreactivity (PSR sort gate)": "high polyreactivity"}]}]}
